Consider five molecules from US20210139548A1 (published 2021).

The labels stand for the following.
T1: human neuropeptide Y2 receptor (human, UniProt P49146 1-381)
T1 construct: whole, on cells; also called hNPY2 receptor; hNPY2-R
T1 sequence (looked up): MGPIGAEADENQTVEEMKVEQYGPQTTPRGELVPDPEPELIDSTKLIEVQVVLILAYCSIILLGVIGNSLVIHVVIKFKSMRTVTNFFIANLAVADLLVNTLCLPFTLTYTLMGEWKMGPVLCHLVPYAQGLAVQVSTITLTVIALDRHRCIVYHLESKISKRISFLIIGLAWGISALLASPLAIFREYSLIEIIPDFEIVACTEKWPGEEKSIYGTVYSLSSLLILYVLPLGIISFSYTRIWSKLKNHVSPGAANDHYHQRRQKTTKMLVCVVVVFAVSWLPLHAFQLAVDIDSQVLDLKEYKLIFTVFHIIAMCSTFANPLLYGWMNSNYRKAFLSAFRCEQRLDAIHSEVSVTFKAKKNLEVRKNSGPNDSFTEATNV

B1: Compound 149 (peptide)
peptide: Isovaleryl-APEK([AEEA-AEEA-γGlu-C18 diacid])PEEAASPEELQRYYVELRHYYNWLTRQRY-NH2
SMILES: CC(C)CC(=O)N[C@@H](C)C(=O)N1CCC[C@H]1C(=O)N[C@@H](CCC(=O)O)C(=O)N[C@@H](CCCCNC(=O)COCCOCCNC(=O)COCCOCCNC(=O)CC[C@H](NC(=O)CCCCCCCCCCCCCCCCC(=O)O)C(=O)O)C(=O)N1CCC[C@H]1C(=O)N[C@@H](CCC(=O)O)C(=O)N[C@@H](CCC(=O)O)C(=O)N[C@@H](C)C(=O)N[C@@H](C)C(=O)N[C@@H](CO)C(=O)N1CCC[C@H]1C(=O)N[C@@H](CCC(=O)O)C(=O)N[C@@H](CCC(=O)O)C(=O)N[C@@H](CC(C)C)C(=O)N[C@@H](CCC(N)=O)C(=O)N[C@@H](CCCNC(=N)N)C(=O)N[C@@H](Cc1ccc(O)cc1)C(=O)N[C@@H](Cc1ccc(O)cc1)C(=O)N[C@H](C(=O)N[C@@H](CCC(=O)O)C(=O)N[C@@H](CC(C)C)C(=O)N[C@@H](CCCNC(=N)N)C(=O)N[C@@H](Cc1c[nH]cn1)C(=O)N[C@@H](Cc1ccc(O)cc1)C(=O)N[C@@H](Cc1ccc(O)cc1)C(=O)N[C@@H](CC(N)=O)C(=O)N[C@@H](Cc1c[nH]c2ccccc12)C(=O)N[C@@H](CC(C)C)C(=O)N[C@H](C(=O)N[C@@H](CCCNC(=N)N)C(=O)N[C@@H](CCC(N)=O)C(=O)N[C@@H](CCCNC(=N)N)C(=O)N[C@@H](Cc1ccc(O)cc1)C(N)=O)[C@@H](C)O)C(C)C
B2: Compound 153 (peptide)
peptide: Isovaleryl-APEK([AEEA-AEEA-γGlu-C18 diacid])VEEEASPEELQRYYVSLRHYYNWLTRQRY-NH2
SMILES: CC(C)CC(=O)N[C@@H](C)C(=O)N1CCC[C@H]1C(=O)N[C@@H](CCC(=O)O)C(=O)N[C@@H](CCCCNC(=O)COCCOCCNC(=O)COCCOCCNC(=O)CC[C@H](NC(=O)CCCCCCCCCCCCCCCCC(=O)O)C(=O)O)C(=O)N[C@H](C(=O)N[C@@H](CCC(=O)O)C(=O)N[C@@H](CCC(=O)O)C(=O)N[C@@H](CCC(=O)O)C(=O)N[C@@H](C)C(=O)N[C@@H](CO)C(=O)N1CCC[C@H]1C(=O)N[C@@H](CCC(=O)O)C(=O)N[C@@H](CCC(=O)O)C(=O)N[C@@H](CC(C)C)C(=O)N[C@@H](CCC(N)=O)C(=O)N[C@@H](CCCNC(=N)N)C(=O)N[C@@H](Cc1ccc(O)cc1)C(=O)N[C@@H](Cc1ccc(O)cc1)C(=O)N[C@H](C(=O)N[C@@H](CO)C(=O)N[C@@H](CC(C)C)C(=O)N[C@@H](CCCNC(=N)N)C(=O)N[C@@H](Cc1c[nH]cn1)C(=O)N[C@@H](Cc1ccc(O)cc1)C(=O)N[C@@H](Cc1ccc(O)cc1)C(=O)N[C@@H](CC(N)=O)C(=O)N[C@@H](Cc1c[nH]c2ccccc12)C(=O)N[C@@H](CC(C)C)C(=O)N[C@H](C(=O)N[C@@H](CCCNC(=N)N)C(=O)N[C@@H](CCC(N)=O)C(=O)N[C@@H](CCCNC(=N)N)C(=O)N[C@@H](Cc1ccc(O)cc1)C(N)=O)[C@@H](C)O)C(C)C)C(C)C
B3: Compound 150 (peptide)
peptide: Isovaleryl-APEK([AEEA-AEEA-γGlu-C18 diacid])PEEDAEPEELQKYYVSLRHYYNWLTRQRY-NH2
SMILES: CC(C)CC(=O)N[C@@H](C)C(=O)N1CCC[C@H]1C(=O)N[C@@H](CCC(=O)O)C(=O)N[C@@H](CCCCNC(=O)COCCOCCNC(=O)COCCOCCNC(=O)CC[C@H](NC(=O)CCCCCCCCCCCCCCCCC(=O)O)C(=O)O)C(=O)N1CCC[C@H]1C(=O)N[C@@H](CCC(=O)O)C(=O)N[C@@H](CCC(=O)O)C(=O)N[C@@H](CC(=O)O)C(=O)N[C@@H](C)C(=O)N[C@@H](CCC(=O)O)C(=O)N1CCC[C@H]1C(=O)N[C@@H](CCC(=O)O)C(=O)N[C@@H](CCC(=O)O)C(=O)N[C@@H](CC(C)C)C(=O)N[C@@H](CCC(N)=O)C(=O)N[C@@H](CCCCN)C(=O)N[C@@H](Cc1ccc(O)cc1)C(=O)N[C@@H](Cc1ccc(O)cc1)C(=O)N[C@H](C(=O)N[C@@H](CO)C(=O)N[C@@H](CC(C)C)C(=O)N[C@@H](CCCNC(=N)N)C(=O)N[C@@H](Cc1c[nH]cn1)C(=O)N[C@@H](Cc1ccc(O)cc1)C(=O)N[C@@H](Cc1ccc(O)cc1)C(=O)N[C@@H](CC(N)=O)C(=O)N[C@@H](Cc1c[nH]c2ccccc12)C(=O)N[C@@H](CC(C)C)C(=O)N[C@H](C(=O)N[C@@H](CCCNC(=N)N)C(=O)N[C@@H](CCC(N)=O)C(=O)N[C@@H](CCCNC(=N)N)C(=O)N[C@@H](Cc1ccc(O)cc1)C(N)=O)[C@@H](C)O)C(C)C
B4: Compound 151 (peptide)
peptide: Isovaleryl-APEK([AEEA-AEEA-γGlu-C18 diacid])PEAEASPEELQRYYVSLRHYYNWLTRQRY-NH2
SMILES: CC(C)CC(=O)N[C@@H](C)C(=O)N1CCC[C@H]1C(=O)N[C@@H](CCC(=O)O)C(=O)N[C@@H](CCCCNC(=O)COCCOCCNC(=O)COCCOCCNC(=O)CC[C@H](NC(=O)CCCCCCCCCCCCCCCCC(=O)O)C(=O)O)C(=O)N1CCC[C@H]1C(=O)N[C@@H](CCC(=O)O)C(=O)N[C@@H](C)C(=O)N[C@@H](CCC(=O)O)C(=O)N[C@@H](C)C(=O)N[C@@H](CO)C(=O)N1CCC[C@H]1C(=O)N[C@@H](CCC(=O)O)C(=O)N[C@@H](CCC(=O)O)C(=O)N[C@@H](CC(C)C)C(=O)N[C@@H](CCC(N)=O)C(=O)N[C@@H](CCCNC(=N)N)C(=O)N[C@@H](Cc1ccc(O)cc1)C(=O)N[C@@H](Cc1ccc(O)cc1)C(=O)N[C@H](C(=O)N[C@@H](CO)C(=O)N[C@@H](CC(C)C)C(=O)N[C@@H](CCCNC(=N)N)C(=O)N[C@@H](Cc1c[nH]cn1)C(=O)N[C@@H](Cc1ccc(O)cc1)C(=O)N[C@@H](Cc1ccc(O)cc1)C(=O)N[C@@H](CC(N)=O)C(=O)N[C@@H](Cc1c[nH]c2ccccc12)C(=O)N[C@@H](CC(C)C)C(=O)N[C@H](C(=O)N[C@@H](CCCNC(=N)N)C(=O)N[C@@H](CCC(N)=O)C(=O)N[C@@H](CCCNC(=N)N)C(=O)N[C@@H](Cc1ccc(O)cc1)C(N)=O)[C@@H](C)O)C(C)C
B5: Compound 152 (peptide)
peptide: Isovaleryl-APEK([AEEA-AEEA-γGlu-C18 diacid])AEEDASPEEIQRYYVSLRHYYNWLTRQRY-NH2
SMILES: CC[C@H](C)[C@H](NC(=O)[C@H](CCC(=O)O)NC(=O)[C@H](CCC(=O)O)NC(=O)[C@@H]1CCCN1C(=O)[C@H](CO)NC(=O)[C@H](C)NC(=O)[C@H](CC(=O)O)NC(=O)[C@H](CCC(=O)O)NC(=O)[C@H](CCC(=O)O)NC(=O)[C@H](C)NC(=O)[C@H](CCCCNC(=O)COCCOCCNC(=O)COCCOCCNC(=O)CC[C@H](NC(=O)CCCCCCCCCCCCCCCCC(=O)O)C(=O)O)NC(=O)[C@H](CCC(=O)O)NC(=O)[C@@H]1CCCN1C(=O)[C@H](C)NC(=O)CC(C)C)C(=O)N[C@@H](CCC(N)=O)C(=O)N[C@@H](CCCNC(=N)N)C(=O)N[C@@H](Cc1ccc(O)cc1)C(=O)N[C@@H](Cc1ccc(O)cc1)C(=O)N[C@H](C(=O)N[C@@H](CO)C(=O)N[C@@H](CC(C)C)C(=O)N[C@@H](CCCNC(=N)N)C(=O)N[C@@H](Cc1c[nH]cn1)C(=O)N[C@@H](Cc1ccc(O)cc1)C(=O)N[C@@H](Cc1ccc(O)cc1)C(=O)N[C@@H](CC(N)=O)C(=O)N[C@@H](Cc1c[nH]c2ccccc12)C(=O)N[C@@H](CC(C)C)C(=O)N[C@H](C(=O)N[C@@H](CCCNC(=N)N)C(=O)N[C@@H](CCC(N)=O)C(=O)N[C@@H](CCCNC(=N)N)C(=O)N[C@@H](Cc1ccc(O)cc1)C(N)=O)[C@@H](C)O)C(C)C

*1 amine or outer side, *2 acyl side, *3 side chain or, on linkers, in order; H or OH if unused. Side-chain parts run from the residue outwards. The star is where a group is joined. C18 diacid = O=C(O)CCCCCCCCCCCCCCCCC(=O)*; γGlu = O=C(O)[C@H](CCC(=O)[*:2])N[*:1]; Isovaleryl = CC(C)CC(=O)*; AEEA = NCCOCCOCC(=O)O

The test addresses T1, human neuropeptide Y2 receptor. In words: radioligand competition (125I-PYY(1-36)), hNPY2R membranes. The procedure, abridged:
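Commercial human Y2 receptor membranes (0.5 μg protein/well) were incubated with peptide for 2 h at room temperature in 50 mM HEPES, 5 mM MgCl₂, 1 mM CaCl₂, pH 7.4, with 0.2% ovalbumin. Bound radioligand was separated on PEI-soaked GF/C filters and counted by scintillation, and IC₅₀ came from nonlinear sigmoidal regression.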
On to B1, for which affinity was put at a Ki of 2.75 nM.
The figure for B2 is 14.4 nM.
As to B3, affinity was put at a Ki of 2.02 nM.
The figure for B4 is 1.43 nM.
For the molecule B5, the inhibition constant Ki turned out to be 5.18 nM.
